Key:
[1] = molecular target: T1, Anterior Gradient 2 (AGR2) (UniProt O95994 21-175); experiment: BLI (Octet)
T1 chain: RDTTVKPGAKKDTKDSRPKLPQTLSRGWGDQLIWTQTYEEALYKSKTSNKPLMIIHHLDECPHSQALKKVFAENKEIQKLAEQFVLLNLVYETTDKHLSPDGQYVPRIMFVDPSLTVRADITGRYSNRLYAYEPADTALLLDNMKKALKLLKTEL

[2] = molecular target: T2, Anterior Gradient 2 (AGR2) (UniProt O95994 21-175, limits assumed); experiment: cell-based or functional assay
T2 sequence (looked up): T1 chain

[3] = molecular target: T2, Anterior Gradient 2 (AGR2); experiment: ELISA and SPR (so in the source); the same KD in mass units
[4] = molecular target: T2, Anterior Gradient 2 (AGR2); experiment: ELISA and SPR (so in the source); purified scFv on AGR2
[5] = molecular target: T3, bovine serum albumin (BSA) (bovine, UniProt P02769 25-607); experiment: ELISA on coated plates (FIG. 6A)
T3 construct: Control coating in ELISA; also called control (BSA)

[6] = molecular target: T1, Anterior Gradient 2 (AGR2); experiment: ELISA
[7] = molecular target: Anterior Gradient 2 (AGR2) (UniProt O95994); experiment: cell-based or functional assay

T3 sequence (P02769 25-607 limits assumed): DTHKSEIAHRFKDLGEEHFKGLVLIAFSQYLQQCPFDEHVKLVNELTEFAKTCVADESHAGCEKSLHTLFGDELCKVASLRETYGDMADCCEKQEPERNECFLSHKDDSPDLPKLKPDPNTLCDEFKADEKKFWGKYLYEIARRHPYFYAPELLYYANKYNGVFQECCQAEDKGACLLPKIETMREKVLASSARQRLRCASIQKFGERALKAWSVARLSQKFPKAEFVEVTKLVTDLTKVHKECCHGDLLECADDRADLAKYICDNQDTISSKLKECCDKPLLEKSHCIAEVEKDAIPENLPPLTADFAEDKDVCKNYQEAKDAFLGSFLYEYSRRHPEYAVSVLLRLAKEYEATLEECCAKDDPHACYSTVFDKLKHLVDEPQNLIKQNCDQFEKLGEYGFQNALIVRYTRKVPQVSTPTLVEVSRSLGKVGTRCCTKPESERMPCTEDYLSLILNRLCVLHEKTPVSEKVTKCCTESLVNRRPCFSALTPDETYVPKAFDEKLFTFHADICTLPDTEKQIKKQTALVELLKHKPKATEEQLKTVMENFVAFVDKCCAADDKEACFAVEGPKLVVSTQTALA

B1: anti-AGR2 scFv clone-15 (scFv)
scFv: EVQLLESGGGLVQPGGSLRLSCAASGFTFSSYAMSWVRQAPGKGLEWVSGISAQGAHTTYADSVKGRFTISRDNSKNTLYLQMNSLRAEDTAVYYCAKTYKGFDYWGQGTLVTVSSGGGGSGGGGSGGGGSTDIQMTQSPSSLSASVGDRVTITCRASQSISSYLNWYQQKPGKAPKLLIYSASRLQSGVPSRFSGSGSGTDFTLTISSLQPEDFATYYCQQGRRMPPTFGQGTKVEIK
notes: Found by phage display, cloned into pET22b, produced and purified in BL21(DE3) E. coli; also called AGR2-scFv-15; scFv-15
[1]
  Kd: 1.57 nM
[2]
  EC50 in the same TDCC assay (Capan1 cells with human PBMCs), scFv alone as comparator: 19.8 µM
[3]
  Kd: 4.69 µg/mL
[4]
  Kd: 180 nM
[5]
  binding result: no binding

B2: anti-AGR2 scFv clone 26 (scFv)
scFv: EVQLLESGGGLVQPGGSLRLSCAASGFTFSSYAMSWVRQAPGKGLEWVSSIQGQGRITRYADSVKGRFTISRDNSKNTLYLQMNSLRAEDTAVYYCAKRAIMFDYWGQGTLVTVSSGGGGSGGGGSGGGGSTDIQMTQSPSSLSASVGDRVTITCRASQSISSYLNWYQQKPGKAPKLLIYHASLLQSGVPSRFSGSGSGTDFTLTISSLQPEDFATYYCQQARYWPLTFGQGTKVEIK
[6]
  EC50: > 100 µg/mL

B3: anti-AGR2 scFv clone 19 (scFv)
scFv: EVQLLESGGGLVQPGGSLRLSCAASGFTFSSYAMSWVRQAPGKGLEWVSAIASQGVATGYADSVKGRFTISRDNSKNTLYLQMNSLRAEDTAVYYCAKLDQHFDYWGQGTLVTVSSGGGGSGGGGSGGGGSTDIQMTQSPSSLSASVGDRVTITCRASQSISSYLNWYQQKPGKAPKLLIYQASRLQSGVPSRFSGSGSGTDFTLTISSLQPEDFATYYCQQARRLPLTFGQGTKVEIK
[6]
  EC50: > 100 µg/mL

B4: human targeted AGR2xCD3 BiTE (anti-AGR2 scFv clone-15 linked to anti-CD3 scFv derived from Orthoclone OKT3) (bispecific antibody, part only; not given: anti-CD3 scFv, linker, His tag, not shown: small tags and cut ends)
chain, part: EVQLLESGGGLVQPGGSLRLSCAASGFTFSSYAMSWVRQAPGKGLEWVSGISAQGAHTTYADSVKGRFTISRDNSKNTLYLQMNSLRAEDTAVYYCAKTYKGFDYWGQGTLVTVSSGGGGSGGGGSGGGGSTDIQMTQSPSSLSASVGDRVTITCRASQSISSYLNWYQQKPGKAPKLLIYSASRLQSGVPSRFSGSGSGTDFTLTISSLQPEDFATYYCQQGRRMPPTFGQGTKVEIKEVQLLESGGGLVQPGGSLRLSCAASGFTFSSYAMSWVRQAPGKGLEWVSGISAQGAHTTYADSVKGRFTISRDNSKNTLYLQMNSLRAEDTAVYYCAKTYKGFDYWGQGTLVTVSSGGGGSGGGGSGGGGSTDIQMTQSPSSLSASVGDRVTITCRASQSISSYLNWYQQKPGKAPKLLIYSASRLQSGVPSRFSGSGSGTDFTLTISSLQPEDFATYYCQQGRRMPPTFGQGTKVEIK
[7]
  EC50 on Capan1 cell viability, BiTE alone (no PBMCs): 16.5 µM
